Patent publication US20170369590A1 (Genmab, published 2017)

B1: HuMab 132 (antibody, V domains shown)
VH: QVQLVQSGAEVKKPGASVKVSCKASGYTFTSYGISWVRQAPGQGLEWMGWISAYNGNSNYVQKFQGRVTMTTDTTTSTAYMELRSLTSDDTAVYYCAREYSYDSGTYFYYGMDVWGQGTTVTVSS
VL: EIVLTQSPATLSLSPGERATLSCRASQSVSSYLAWYQQKPGQAPRLLIYDASNRATGIPARFSGSGSGTDFTLTISSLEPEDFAVYYCQQRSNWPMYTFGQGTKLEIK
B2: HuMab 059 (antibody, V domains shown)
VH: QVQLVQSGAEVKKPGASVRVPCKASGYTFTRYGISWVRQAPGQGLEWMGWISAYNGKTYYAQKLQGRVTMTTDTSTSTAYMELRSLRSDDTAVYYCARSPLLWFEELYFDYWGQGTLVTVSS
VL: EIVLTQSPGTLSLSPGERATLSCRASQSVSSTYLAWYQQKPGQAPRLLIYGASSRATGIPDRFSGSGSGTDFTLTISRLEPEDFAVYYCQQYGTSLFTFGPGTKVDIK
notes: also called PC1014-059
B3: HuMab 060 (antibody, V domains shown)
VH: EVQLVQSGAEVKKPGESLKISCKGSGYRFTSYWIGWVRQMPGKGLEWMGSIYPGDSYTRNSPSFQGQVTISADKSIATAYLQWNSLKASDTAMYYCARHAGDFYYFDGLDVWGQGTTVTVSS
VL: not shown
notes: also called PC1014-060
B4: HuMab 106 (antibody, V domains shown)
VH: EVQLVQSGAEVKKPGESLKISCKGSGYSFTRYWIGWVRQMPGKGLEWMGIIYPGDSDTRYSPSFQGQVTISADKSISTAYLQWSSLKASDTAMYYCARLTGDRGFDYYSGMDVWGQGTTVTVSS
VL: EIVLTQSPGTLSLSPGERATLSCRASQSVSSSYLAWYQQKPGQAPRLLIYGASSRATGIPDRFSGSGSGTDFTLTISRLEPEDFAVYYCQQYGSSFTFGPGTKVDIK

Legend:
[1] = target: T1, HER2ECDHis (human, UniProt P04626 23-653, biotinylated in the cross-block ELISA (sites not given)); assay: ELISA; competitor F5
T1 construct: range 1-653; expressed in HEK-293F; also called soluble HER2; biotinylated HER2ECDHis

[2] = target: T1, HER2ECDHis; assay: ELISA; competitor 153
Method: (§1) Next, the ELISA wells were washed with PBST (PBS supplemented with 0.05% Tween-20 [Sigma-Aldrich, Zwijndrecht, The Netherlands]) and blocked for one hour at room temperature (RT) with PBSTC (PBST supplemented 2% [v/v] chicken serum [Gibco, Paisley, Scotland]). The ELISA wells were then washed with PBST and incubated for one hour at RT with HER2ECDHis serially diluted in PBSTC (0.25-2 μg/mL in 2-fold dilutions). […] The plate was thereafter washed with PBST and incubated for one hour with 0.1 μg/mL Streptavidin-poly-HRP (Sanquin, Amsterdam, The Netherlands) diluted in PBST. After washing, the reaction was visualized through a 15 minutes incubation with 2,2′-azino-bis (3-ethylbenzothiazoline-6-sulfonic acid) (ABTS: one ABTS tablet diluted in 50 mL ABTS buffer (Roche Diagnostics, Almere, The Netherlands)) at RT protected from light. The colorization was stopped by adding an equal volume of oxalic acid (Sigma-Aldrich, Zwijndrecht, The Netherlands). Fluorescence at 405 nm was measured on a microtiter plate reader (Biotek Instruments, Winooski, USA).
(§2) Each HER2 antibody was coated to the ELISA wells at the sub-optimal dose that was determined as described above. After blocking of the ELISA wells, the wells were incubated with the predetermined concentration of 1 μg/mL biotinylated HER2ECDHis in the presence or absence of an excess of a second (competitor) HER2 antibody. The ELISA was then performed as described above. […] Percentage competition was then determined as 100 minus the percentage of inhibition.

[3] = target: T1, HER2ECDHis; assay: ELISA; competitor 159
Method: as §1, §2

[4] = target: T2, human epidermal growth factor receptor 2 (HER2), membrane-bound on cells (human, UniProt P04626 23-1255); assay: cell-based or functional assay
[5] = target: T1, HER2ECDHis; assay: ELISA; competitor tras
Method: as §1, §2

[6] = target: T1, HER2ECDHis; assay: ELISA; competitor C1
Method: as §1, §2

[7] = target: T2, human epidermal growth factor receptor …; assay: cell-based or functional assay; remark: listed apart in the source
[8] = target: T1, HER2ECDHis; assay: ELISA; competitor pert
Method: as §1, §2

[9] = target: T1, HER2ECDHis; assay: ELISA; competitor 127
Method: as §1, §2

[10] = target: T1, HER2ECDHis; assay: ELISA; competitor 132
Method: as §1, §2

[11] = target: T1, HER2ECDHis; assay: ELISA; competitor 098
Method: as §1, §2

[12] = target: T1, HER2ECDHis; assay: ELISA; competitor 059
Method: as §1, §2

[13] = target: T1, HER2ECDHis; assay: ELISA; competitor Tras
Method: as §1, §2

[14] = target: T1, HER2ECDHis; assay: ELISA; competitor 106
Method: as §1, §2

[15] = target: T1, HER2ECDHis; assay: ELISA; competitor 111
Method: as §1, §2

[16] = target: T1, HER2ECDHis; assay: ELISA; competitor 060
Method: as §1, §2

[17] = target: T1, HER2ECDHis; assay: ELISA; competitor Pert
Method: as §1, §2

[18] = target: T1, HER2ECDHis; assay: ELISA; competitor 005
Method: as §1, §2

[19] = target: T1, HER2ECDHis; assay: ELISA; competitor 006
Method: as §1, §2

[20] = target: T2, human epidermal growth factor receptor …; assay: cell-based or functional assay; remark: listed apart in the source

| Binder | % binding vs no competitor [1] | % cells killed, AU565, anti-kappa-ETA'-conjugated [4] | EC50 of cell kill, AU565, anti-kappa-ETA'-conjugated [4] | % binding vs no competitor [6] | EC50, fab-CypHer5E internalization, AU565 [7] | Maximal MFI, fab-CypHer5E internalization, AU565 [7] | % binding vs no competitor [12] | % binding vs no competitor [13] | % binding vs no competitor [14] | % binding vs no competitor [15] | % binding vs no competitor [16] | % binding vs no competitor [17] | % binding vs no competitor [18] | % binding vs no competitor [19] | also measured |
| --- | --- | --- | --- | --- | --- | --- | --- | --- | --- | --- | --- | --- | --- | --- | --- |
| B1 | 379% | 61.6% | 0.0394 µg/mL | 422% | 0.0114 µg/mL | 112000 MFI | – | – | – | – | – | – | – | – | % binding vs no competitor [2]: 41%; % binding vs no competitor [3]: 131%; % binding vs no competitor [5]: 353%; % binding vs no competitor [8]: 288%; % binding vs no competitor [9]: 30%; % binding vs no competitor [10]: 32%; % binding vs no competitor [11]: 309% |
| B2 | 128% | 67% | 0.0677 µg/mL | 78% | 0.0148 µg/mL | 77100 MFI | 12% | 117% | 23% | 12% | 11% | 107% | 13% | 11% | – |
| B3 | 126% | 64.3% | 0.0794 µg/mL | 108% | 0.0362 µg/mL | 68200 MFI | 14% | 106% | 37% | 35% | 19% | 99% | 30% | 6% | % cells killed, A431, anti-kappa-ETA'-conjugated [20]: 85%; EC50 of cell kill, A431, anti-kappa-ETA'-conjugated [20]: ~0.01 µg/mL |
| B4 | 495% | 59.1% | 0.108 µg/mL | 471% | 0.0686 µg/mL | 57400 MFI | 25% | 323% | 26% | 21% | 23% | 275% | 25% | 25% | – |
